The nature of data set [1]: DSF thermostability of Ric8A constructs and Ric8A1–492 mutants (protein alone). The class given is physicochemical, bovine. As for the experimental part: Stabilities of Ric8A constructs with and without peptide ligands were assessed using differential scanning fluorimetry (DSF), in which an increase in fluorescence of the Sypro Orange dye is measured. Ric8A1–492, Ric8A1–452 and Ric8A1–426 in 20 mM Tris-HCl (pH 7.5) buffer containing 150 mM KCl, 5% glycerol, and 1 mM TCEP with and without peptide were used at a final concentration of 0.5 mg/ml and were supplemented with a 1000-fold dilution of Sypro Orange dye (Invitrogen). Temperature was increased at 1 °C/minute and fluorescence signals were recorded using real-time PCR (C1000 Touch thermal cycler, Bio Rad), with the cycler set to FRET mode and the excitation wavelength set at 450–490 nm and the emission wavelength at 560–580 nm.

Data set [2] has as its system Gαt. In words: BLI: Ric8A1–492 and its mutants binding to full-length Avi-tagged Gαt. As for the experimental part: (§1) An Octet RED96 system and streptavidin (SA)-coated biosensors (FortéBio, Menlo Park, CA) were used to measure association and dissociation kinetics for Gα peptides or the full-length Avi-tagged Gαt in relation to Ric8A1–492, Ric8A1–452, and Ric8A1–426. To obtain the Avi-tagged Gαt, Gαt was cloned into modified pET21a vector with the N-terminal His6-tag followed by the Avi tag and TEV cleavage site[59]. The Avi-tagged I340Q/N343H mutant of Gαt was prepared by QuikChange protocol. BL21(DE3) cells for expression of the Avi-tagged Gαt were grown in 2TY media supplemented with biotin (10 mg/liter), induced at OD600 of 0.6 with 50 µM IPTG and further grown overnight at 16 °C. Binding studies were performed in 20 mM Tris, 150 mM KCl, 5% glycerol, 1 mM TCEP, 0.5 mg/ml BSA, pH 8.0. All steps were performed at 26 °C, with biosensors stirred into 0.2 ml of sample in each well at 1000 rpm, and at a data acquisition rate of 5.0 Hz. N-terminally biotinylated Gαt333–350, Gαs363–380, C1 peptide and C2 peptide were loaded onto SA sensors at a concentration of 0.05, 0.05, 0.005, and 0.01 mg/ml for 40–90 seconds. Data for association and dissociation phases of the assay were collected as shown in Fig. 1b and Supplementary Figs. 8, 11, 12, and 14. To correct for baseline drift and non-specific binding, reference sensors lacking bound Gα peptide were used in the BLI assays with Ric8A proteins at the highest concentrations. Kinetic data fitting was performed using FortéBio Data Analysis software 10.0. For each concentration of Ric8A1–492, dissociation rate constant (kd) values were calculated from the corresponding dissociation phases of the curves. These kd values were used to calculate the association rate constant (ka) values from the association phases for each concentration according to the equation1 ka=kobserved-kd∕Ric8A1-492 The average ka and kd were calculated as means of the individual ka and kd values for all curves. Equilibrium dissociation constant KD was calculated as mean kd/mean ka. Steady-state data fitting was performed using the GraphPad Prism 7 software with the equation for one site specific binding.
A general note: BLI is a label-free optical method that tracks binding on a fibre tip over time.

For data set [3], the system named is Gαt333–350. The data set is described as follows: BLI: Ric8A1–492 and its mutants binding to biotinylated Gαt333–350. As to conditions: for binding to Gαt333–350 (in words): BLI; for Kd: BLI steady state. On the procedure: as §1
Where [4] appears, read: BLI steady state, source data, experiment 1, read-out: KD (uM), Gαt.
Where [5] appears, read: BLI steady state, source data, experiment 2, read-out: KD (uM), Gαt.
Setting [6] is: BLI steady state, source data, experiment 3, read-out: KD (uM), Gαt.
[7] abbreviates: BLI steady state, source data, mean of replicates, read-out: mean KD, Gαt.
Setting [8] is: source data, experiment 1, read-out: KD (uM), Gαt333-350.
Where [9] appears, read: source data, experiment 2, read-out: KD (uM), Gαt333-350.
Setting [10] is: source data, experiment 3, read-out: KD (uM), Gαt333-350.
The mark [11] stands for this setting: source data, mean of replicates, read-out: Mean KD, Gαt333-350.
The mark [12] stands for this setting: DSF, protein alone, source data, mean of replicates.
Where [13] appears, read: DSF, protein alone, source data, replicate 1.
[14] abbreviates: DSF, protein alone, source data, replicate 2.
Where [15] appears, read: DSF, protein alone, source data, replicate 3.
[16] abbreviates: DSF, protein alone, source data, replicate 4.

Like-named read-outs stand apart in the source and are kept apart here. Some results are limits rather than exact numbers.

B1: Ric8A1–426: bovine Ric8A construct lacking the C-terminal region, residues 1–426 (protein)
chain: MEPRAVADALETGEEDVVMEALRAYNRENSQSFTFDDAQQEDRKRLAKLLVSVLEQGLPPSRRVIWLQSIRILSRDRSCLDSFTSRRSLQALACYAGISASQGSVPEPLNMDVVLESLKCLCNLVLSSPVAQALAAEAGLVVRLAERVGLCRQSSFPHDVQFFDLRLLFLLTALRTDVRQQLFQELQGVRLLTRALELTLGMTEGERHPELLPPQETERAMEILKVLFNITFDSIKREVDEEDAALYRHLGTLLRHCVMLAAAGDRTEELHGHAVNLLGNLPVKCLDVLLTLEPHEGSLEFLGVNMDVIRVLLSFMEKRLHQTHRLKESVAPVLSVLTECARMHRPARKFLKAQVLPPLRDVRTRPEVGELLRNKLVRLMTHLDTDVKRVAAEFLFVLCSESVPRFIKYTGYGNAAGLLAARGLMA
modifications: left off: His6, N-terminal, state not stated
As usually defined, the Tm is the temperature at the midpoint of the melting transition. Turning to B1, in data set [1] (DSF, Sypro Orange, protein alone 0.5 mg/ml, 20 mM Tris-HCl pH 7.5, 150 mM KCl, 5% glycerol, 1 mM TCEP, 1 °C/minute, mean ± SD (n = 3)), the Tm turned out to be 36.5 ± 1.1 °C. Moreover, the “mean Tm” value in data set [1] (Suppl Fig 14B DSF, mean of 3 experiments, SD 1.1) came to 36.5 C.

B2: A173W: A173 mutant of Ric8A1–492, printed A173W in figures and source data, A173F in text (protein)
chain: MEPRAVADALETGEEDVVMEALRAYNRENSQSFTFDDAQQEDRKRLAKLLVSVLEQGLPPSRRVIWLQSIRILSRDRSCLDSFTSRRSLQALACYAGISASQGSVPEPLNMDVVLESLKCLCNLVLSSPVAQALAAEAGLVVRLAERVGLCRQSSFPHDVQFFDLRLLFLLTFLRTDVRQQLFQELQGVRLLTRALELTLGMTEGERHPELLPPQETERAMEILKVLFNITFDSIKREVDEEDAALYRHLGTLLRHCVMLAAAGDRTEELHGHAVNLLGNLPVKCLDVLLTLEPHEGSLEFLGVNMDVIRVLLSFMEKRLHQTHRLKESVAPVLSVLTECARMHRPARKFLKAQVLPPLRDVRTRPEVGELLRNKLVRLMTHLDTDVKRVAAEFLFVLCSESVPRFIKYTGYGNAAGLLAARGLMAGGRPEGQYSEDEDTDTDEYKEAKASINPVTGRVEEKPPNPMEGMTEEQKEHEAMKLVNMFDKLSRH
modifications: left off: His6, N-terminal, state not stated
One may read the Kd as the free concentration of one partner at which half of the binding sites on the other are occupied at equilibrium, for simple one-to-one binding. Take B2: the “binding to Gαt (in words)” value in data set [2] (BLI) was “severely reduced affinity”. For the same molecule, the Kd was over 10 µM in data set [2] (BLI steady state, mean ± SD, n = 3, ND – not detectable, read-out: KD (μM) Gαt); 11.2 µM in data set [2] (setting [4]); 11.5 µM in data set [2] (setting [5]); 15.1 µM in data set [2] (setting [6]); over 10 µM in data set [2] (setting [7]); over 10 µM in data set [2] (BLI, representative curve (Fig. 3g), read-out: KD, steady-state binding curve, Gαt). For the same molecule, the Kd in data set [3] (mean ± SD, n = 3, ND – not detectable, read-out: KD (μM) Gαt333–350) is over 10 µM; in data set [3] (setting [8]) it was 23.8 µM; in data set [3] (setting [9]), 26.9 µM; in data set [3] (setting [10]) it was 26.8 µM; in data set [3] (setting [11]), over 10 µM. Also, in data set [3], the “binding to Gαt333–350 (in words)” value was “severely impaired the interaction”. In addition, the “mean Tm” value in data set [1] (setting [12]) turned out to be 45.6 C. For the same molecule, the “Tm (C )” value in data set [1] (setting [13]) worked out at 45.57 C; in data set [1] (setting [14]), 45.54 C; in data set [1] (setting [15]) it was 45.74 C; in data set [1] (setting [16]), 45.49 C.

B3: N123E: N123E mutant of Ric8A1–492 (protein, UniProt Q5E9J8 1-492, looked up, variant N123E)
chain: MEPRAVADALETGEEDVVMEALRAYNRENSQSFTFDDAQQEDRKRLAKLLVSVLEQGLPPSRRVIWLQSIRILSRDRSCLDSFTSRRSLQALACYAGISASQGSVPEPLNMDVVLESLKCLCELVLSSPVAQALAAEAGLVVRLAERVGLCRQSSFPHDVQFFDLRLLFLLTALRTDVRQQLFQELQGVRLLTRALELTLGMTEGERHPELLPPQETERAMEILKVLFNITFDSIKREVDEEDAALYRHLGTLLRHCVMLAAAGDRTEELHGHAVNLLGNLPVKCLDVLLTLEPHEGSLEFLGVNMDVIRVLLSFMEKRLHQTHRLKESVAPVLSVLTECARMHRPARKFLKAQVLPPLRDVRTRPEVGELLRNKLVRLMTHLDTDVKRVAAEFLFVLCSESVPRFIKYTGYGNAAGLLAARGLMAGGRPEGQYSEDEDTDTDEYKEAKASINPVTGRVEEKPPNPMEGMTEEQKEHEAMKLVNMFDKLSRH
modifications: residues 1-492
As for B3, the “binding to Gαt (in words)” value in data set [2] (BLI) is recorded as “no Gαt binding was detected”. Besides, the “binding to Gαt333–350 (in words)” value in data set [3] is on record as “ablated the binding”. In data set [1] (setting [12]), the “mean Tm” value amounted to 46.7 C. The “Tm (C )” value in data set [1] (setting [13]) was 46.78 C; in data set [1] (setting [14]), 46.59 C; in data set [1] (setting [15]), 46.65 C; in data set [1] (setting [16]), 46.83 C.

B4: F169R: F169R mutant of Ric8A1–492 (protein)
chain: MEPRAVADALETGEEDVVMEALRAYNRENSQSFTFDDAQQEDRKRLAKLLVSVLEQGLPPSRRVIWLQSIRILSRDRSCLDSFTSRRSLQALACYAGISASQGSVPEPLNMDVVLESLKCLCNLVLSSPVAQALAAEAGLVVRLAERVGLCRQSSFPHDVQFFDLRLLRLLTALRTDVRQQLFQELQGVRLLTRALELTLGMTEGERHPELLPPQETERAMEILKVLFNITFDSIKREVDEEDAALYRHLGTLLRHCVMLAAAGDRTEELHGHAVNLLGNLPVKCLDVLLTLEPHEGSLEFLGVNMDVIRVLLSFMEKRLHQTHRLKESVAPVLSVLTECARMHRPARKFLKAQVLPPLRDVRTRPEVGELLRNKLVRLMTHLDTDVKRVAAEFLFVLCSESVPRFIKYTGYGNAAGLLAARGLMAGGRPEGQYSEDEDTDTDEYKEAKASINPVTGRVEEKPPNPMEGMTEEQKEHEAMKLVNMFDKLSRH
modifications: left off: His6, N-terminal, state not stated
With B4, in data set [2] (BLI), the “binding to Gαt (in words)” value was “severely reduced affinity”. Moreover, the equilibrium dissociation constant (Kd) in data set [2] (setting [4]) was 2.04 µM; in data set [2] (setting [5]), 1.84 µM; in data set [2] (setting [6]), 1.66 µM; in data set [2] (setting [7]), 1.8 µM; in data set [3] (setting [8]), 2.04 µM; in data set [3] (setting [9]), 1.89 µM. The Kd amounted to 1.45 µM in data set [3] (setting [10]); 1.89 µM in data set [3] (source data, experiment 4, read-out: KD (uM), Gαt333-350); 1.8 µM in data set [3] (setting [11]). Moreover, in data set [3], the “binding to Gαt333–350 (in words)” value is given as “severely impaired the interaction”. For the same molecule, the “mean Tm” value in data set [1] (setting [12]) is 45.6 C. In addition, the “Tm (C )” value in data set [1] (setting [13]) was found to be 45.84 C; in data set [1] (setting [14]), 45.62 C; in data set [1] (setting [15]) it was 45.65 C; in data set [1] (setting [16]) it was 45.38 C.

Values taken from PMC6625990, “Structural underpinnings of Ric8A function as a G-protein α-subunit chaperone and guanine-nucleotide exchange factor” (Nature Communications, 2019).
